Data: patent US20140328753A1
Values belong to the binder of their own block, whether it stands above or below them.

Legend:
[1] = target: rabbit atheromatous protein extract; experiment: direct TR-FRET inhibition; six-fold excess of unlabeled atheromatous extract as competitor against biotinylated atheromatous extract, 16 h at 4 °C
[2] = target: unlabeled protein extract from untreated animals; experiment: direct TR-FRET inhibition; six-fold excess of unlabeled extract from untreated rabbits as competitor against biotinylated atheromatous extract, 16 h at 4 °C

- inhibition of the DeltaF binding value [1]: 75%
- inhibition of the DeltaF binding value [2]: 50%
B1: H2.1 scFv antibody (scFv)
scFv: EVQLVESGGSLVKPGGSLRLSCAASGFTFSNYSMNWVRQAPGKGLEWISSISGSSRYIYYADFVKGRFTISRDNATNSLYLQMNSLRAEDTAVYYCVRGGVDSSGDNCFDLWGRGTLVTVSSGGGGSGGGGSGGGGSQSVLTQPASVSGSPGQSITISCAGTSSDVGGYNYVSWYQQHPGKAPKLMIYEDSKRPSGVSNRFSGSKSGNTASLTISGLQAEDEADYYCTSYGSGATLVFGGGTKLAV

- inhibition of the DeltaF binding value [1]: 80%
- inhibition of the DeltaF binding value [2]: 35%
B2: I8.1 scFv antibody (scFv)
scFv: EVQLVESGGSLVKPGGSLRLSCAASGFTFSNYSMNWVRQAPGKGLEWISSISGSSRYIYYADFVKGRFTISRDNATNSLYLQMNSLRAEDTAVYYCVRNSFYASWSKDYSMEIWGRGTLVTVSSGGGGSGGGGSGGGGSQSVLTQPASVSGSPGQSITISCAGTSSDVGGYNYVSWYQQHPGKAPKLMIYEDSKRPSGVSNRFSGSKSGNTASLTISGLQAEDEADYYCQSWASRINIFGGGTKLAV
